Experimental data published in patent US20150374794A1 (Novo Nordisk, published 2015).
Numbered stars: 1 amine (or outer) side, 2 acyl side, 3 side chain; on linkers, the order of the positions; unused ones are H or OH. Square brackets hold non-standard residues; d marks the D form. Side chains are listed from the residue outwards. Ends that are not written are not given here. * marks the point of attachment. C18 diacid = O=C(O)CCCCCCCCCCCCCCCCC(=O)*; γGlu = O=C(O)[C@H](CCC(=O)[*:2])N[*:1]; Ac4c = NC1(C(=O)O)CCC1; AEEA = NCCOCCOCC(=O)O; Aib = CC(C)(N)C(=O)O

B1: N^ε28-[(4S)-4-carboxy-4-[[(4S)-4-carboxy-4-[[2-[2-[2-[[2-[2-[2-[[(4S)-4-carboxy-4-[[(4S)-4-carboxy-4-(17-carboxyheptadecanoylamino)butanoyl]amino]butanoyl]amino … (peptide)
peptide: H[Ac4c]QGTFTSDLSKYLDLRRAREFVQWLLK([γGlu-γGlu-AEEA-AEEA-γGlu-γGlu-C18 diacid])T-NH2
modifications: N-terminus assumed
SMILES: CC(C)C[C@H](NC(=O)[C@H](CC(=O)O)NC(=O)[C@H](CC(C)C)NC(=O)[C@H](Cc1ccc(O)cc1)NC(=O)[C@H](CCCCN)NC(=O)[C@H](CO)NC(=O)[C@H](CC(C)C)NC(=O)[C@H](CC(=O)O)NC(=O)[C@H](CO)NC(=O)[C@@H](NC(=O)[C@H](Cc1ccccc1)NC(=O)[C@@H](NC(=O)CNC(=O)[C@H](CCC(N)=O)NC(=O)C1(NC(=O)[C@@H](N)Cc2c[nH]cn2)CCC1)[C@@H](C)O)[C@@H](C)O)C(=O)N[C@@H](CCCNC(=N)N)C(=O)N[C@@H](CCCNC(=N)N)C(=O)N[C@@H](C)C(=O)N[C@@H](CCCNC(=N)N)C(=O)N[C@@H](CCC(=O)O)C(=O)N[C@@H](Cc1ccccc1)C(=O)N[C@H](C(=O)N[C@@H](CCC(N)=O)C(=O)N[C@@H](Cc1c[nH]c2ccccc12)C(=O)N[C@@H](CC(C)C)C(=O)N[C@@H](CC(C)C)C(=O)N[C@@H](CCCCNC(=O)CC[C@H](NC(=O)CC[C@H](NC(=O)COCCOCCNC(=O)COCCOCCNC(=O)CC[C@H](NC(=O)CC[C@H](NC(=O)CCCCCCCCCCCCCCCCC(=O)O)C(=O)O)C(=O)O)C(=O)O)C(=O)O)C(=O)N[C@H](C(N)=O)[C@@H](C)O)C(C)C
B2: N^ε28-[(4S)-4-carboxy-4-[[(4S)-4-carboxy-4-[[(4S)-4-carboxy-4-(17-carboxyheptadecanoylamino)butanoyl]amino]butanoyl]amino]butanoyl]-[Aib2,Leu10,Arg12,Ala16,Arg2 … (peptide)
peptide: H[Aib]QGTFTSDLSRYLDARRARDFVQWLLK([γGlu-γGlu-γGlu-C18 diacid])T-NH2
modifications: N-terminus assumed
SMILES: CC(C)C[C@H](NC(=O)[C@H](Cc1ccc(O)cc1)NC(=O)[C@H](CCCNC(=N)N)NC(=O)[C@H](CO)NC(=O)[C@H](CC(C)C)NC(=O)[C@H](CC(=O)O)NC(=O)[C@H](CO)NC(=O)[C@@H](NC(=O)[C@H](Cc1ccccc1)NC(=O)[C@@H](NC(=O)CNC(=O)[C@H](CCC(N)=O)NC(=O)C(C)(C)NC(=O)[C@@H](N)Cc1c[nH]cn1)[C@@H](C)O)[C@@H](C)O)C(=O)N[C@@H](CC(=O)O)C(=O)N[C@@H](C)C(=O)N[C@@H](CCCNC(=N)N)C(=O)N[C@@H](CCCNC(=N)N)C(=O)N[C@@H](C)C(=O)N[C@@H](CCCNC(=N)N)C(=O)N[C@@H](CC(=O)O)C(=O)N[C@@H](Cc1ccccc1)C(=O)N[C@H](C(=O)N[C@@H](CCC(N)=O)C(=O)N[C@@H](Cc1c[nH]c2ccccc12)C(=O)N[C@@H](CC(C)C)C(=O)N[C@@H](CC(C)C)C(=O)N[C@@H](CCCCNC(=O)CC[C@H](NC(=O)CC[C@H](NC(=O)CC[C@H](NC(=O)CCCCCCCCCCCCCCCCC(=O)O)C(=O)O)C(=O)O)C(=O)O)C(=O)N[C@H](C(N)=O)[C@@H](C)O)C(C)C
B3: N^ε29-[(4S)-4-carboxy-4-[[(4S)-4-carboxy-4-[[2-[2-[2-[[2-[2-[2-[[(4S)-4-carboxy-4-(17-carboxyheptadecanoylamino)butanoyl]amino]ethoxy]ethoxy]acetyl]amino]ethoxy … (peptide)
peptide: H[Aib]QGTFTSDLSKYLDARRARDFVQWLLNK([γGlu-γGlu-AEEA-AEEA-γGlu-C18 diacid])-NH2
modifications: N-terminus assumed
SMILES: CC(C)C[C@H](NC(=O)[C@H](Cc1ccc(O)cc1)NC(=O)[C@H](CCCCN)NC(=O)[C@H](CO)NC(=O)[C@H](CC(C)C)NC(=O)[C@H](CC(=O)O)NC(=O)[C@H](CO)NC(=O)[C@@H](NC(=O)[C@H](Cc1ccccc1)NC(=O)[C@@H](NC(=O)CNC(=O)[C@H](CCC(N)=O)NC(=O)C(C)(C)NC(=O)[C@@H](N)Cc1c[nH]cn1)[C@@H](C)O)[C@@H](C)O)C(=O)N[C@@H](CC(=O)O)C(=O)N[C@@H](C)C(=O)N[C@@H](CCCNC(=N)N)C(=O)N[C@@H](CCCNC(=N)N)C(=O)N[C@@H](C)C(=O)N[C@@H](CCCNC(=N)N)C(=O)N[C@@H](CC(=O)O)C(=O)N[C@@H](Cc1ccccc1)C(=O)N[C@H](C(=O)N[C@@H](CCC(N)=O)C(=O)N[C@@H](Cc1c[nH]c2ccccc12)C(=O)N[C@@H](CC(C)C)C(=O)N[C@@H](CC(C)C)C(=O)N[C@@H](CC(N)=O)C(=O)N[C@@H](CCCCNC(=O)CC[C@H](NC(=O)CC[C@H](NC(=O)COCCOCCNC(=O)COCCOCCNC(=O)CC[C@H](NC(=O)CCCCCCCCCCCCCCCCC(=O)O)C(=O)O)C(=O)O)C(=O)O)C(N)=O)C(C)C
B4: N^ε29-[(4S)-4-carboxy-4-[[(4S)-4-carboxy-4-[[2-[2-[2-[[2-[2-[2-[[(4S)-4-carboxy-4-(17-carboxyheptadecanoylamino)butanoyl]amino]ethoxy]ethoxy]acetyl]amino]ethoxy … (peptide)
peptide: H[Aib]QGTFTSDLSKYLDARRARDFVQWLLSK([γGlu-γGlu-AEEA-AEEA-γGlu-C18 diacid])-NH2
modifications: N-terminus assumed
SMILES: CC(C)C[C@H](NC(=O)[C@H](Cc1ccc(O)cc1)NC(=O)[C@H](CCCCN)NC(=O)[C@H](CO)NC(=O)[C@H](CC(C)C)NC(=O)[C@H](CC(=O)O)NC(=O)[C@H](CO)NC(=O)[C@@H](NC(=O)[C@H](Cc1ccccc1)NC(=O)[C@@H](NC(=O)CNC(=O)[C@H](CCC(N)=O)NC(=O)C(C)(C)NC(=O)[C@@H](N)Cc1c[nH]cn1)[C@@H](C)O)[C@@H](C)O)C(=O)N[C@@H](CC(=O)O)C(=O)N[C@@H](C)C(=O)N[C@@H](CCCNC(=N)N)C(=O)N[C@@H](CCCNC(=N)N)C(=O)N[C@@H](C)C(=O)N[C@@H](CCCNC(=N)N)C(=O)N[C@@H](CC(=O)O)C(=O)N[C@@H](Cc1ccccc1)C(=O)N[C@H](C(=O)N[C@@H](CCC(N)=O)C(=O)N[C@@H](Cc1c[nH]c2ccccc12)C(=O)N[C@@H](CC(C)C)C(=O)N[C@@H](CC(C)C)C(=O)N[C@@H](CO)C(=O)N[C@@H](CCCCNC(=O)CC[C@H](NC(=O)CC[C@H](NC(=O)COCCOCCNC(=O)COCCOCCNC(=O)CC[C@H](NC(=O)CCCCCCCCCCCCCCCCC(=O)O)C(=O)O)C(=O)O)C(=O)O)C(N)=O)C(C)C
B5: N^ε29-[(4S)-4-carboxy-4-[[(4S)-4-carboxy-4-[[2-[2-[2-[[2-[2-[2-[[(4S)-4-carboxy-4-(17-carboxyheptadecanoylamino)butanoyl]amino]ethoxy]ethoxy]acetyl]amino]ethoxy … (peptide)
peptide: H[Aib]QGTFTSDLSKYLDSKAAQEFVQWLLNK([γGlu-γGlu-AEEA-AEEA-γGlu-C18 diacid])-NH2
modifications: N-terminus assumed
SMILES: CC(C)C[C@H](NC(=O)[C@H](CC(C)C)NC(=O)[C@H](Cc1c[nH]c2ccccc12)NC(=O)[C@H](CCC(N)=O)NC(=O)[C@@H](NC(=O)[C@H](Cc1ccccc1)NC(=O)[C@H](CCC(=O)O)NC(=O)[C@H](CCC(N)=O)NC(=O)[C@H](C)NC(=O)[C@H](C)NC(=O)[C@H](CCCCN)NC(=O)[C@H](CO)NC(=O)[C@H](CC(=O)O)NC(=O)[C@H](CC(C)C)NC(=O)[C@H](Cc1ccc(O)cc1)NC(=O)[C@H](CCCCN)NC(=O)[C@H](CO)NC(=O)[C@H](CC(C)C)NC(=O)[C@H](CC(=O)O)NC(=O)[C@H](CO)NC(=O)[C@@H](NC(=O)[C@H](Cc1ccccc1)NC(=O)[C@@H](NC(=O)CNC(=O)[C@H](CCC(N)=O)NC(=O)C(C)(C)NC(=O)[C@@H](N)Cc1c[nH]cn1)[C@@H](C)O)[C@@H](C)O)C(C)C)C(=O)N[C@@H](CC(N)=O)C(=O)N[C@@H](CCCCNC(=O)CC[C@H](NC(=O)CC[C@H](NC(=O)COCCOCCNC(=O)COCCOCCNC(=O)CC[C@H](NC(=O)CCCCCCCCCCCCCCCCC(=O)O)C(=O)O)C(=O)O)C(=O)O)C(N)=O
B6: N^ε29-[(4S)-4-carboxy-4-[[2-[2-[2-[[2-[2-[2-[[(4S)-4-carboxy-4-[[(4S)-4-carboxy-4-(17-carboxyheptadecanoylamino)butanoyl]amino]butanoyl]amino]ethoxy]ethoxy]acet … (peptide)
peptide: H[Aib]QGTFTSDLSKYLESRRAREFVQWLLNK([γGlu-AEEA-AEEA-γGlu-γGlu-C18 diacid])-NH2
modifications: N-terminus assumed
SMILES: CC(C)C[C@H](NC(=O)[C@H](CC(C)C)NC(=O)[C@H](Cc1c[nH]c2ccccc12)NC(=O)[C@H](CCC(N)=O)NC(=O)[C@@H](NC(=O)[C@H](Cc1ccccc1)NC(=O)[C@H](CCC(=O)O)NC(=O)[C@H](CCCNC(=N)N)NC(=O)[C@H](C)NC(=O)[C@H](CCCNC(=N)N)NC(=O)[C@H](CCCNC(=N)N)NC(=O)[C@H](CO)NC(=O)[C@H](CCC(=O)O)NC(=O)[C@H](CC(C)C)NC(=O)[C@H](Cc1ccc(O)cc1)NC(=O)[C@H](CCCCN)NC(=O)[C@H](CO)NC(=O)[C@H](CC(C)C)NC(=O)[C@H](CC(=O)O)NC(=O)[C@H](CO)NC(=O)[C@@H](NC(=O)[C@H](Cc1ccccc1)NC(=O)[C@@H](NC(=O)CNC(=O)[C@H](CCC(N)=O)NC(=O)C(C)(C)NC(=O)[C@@H](N)Cc1c[nH]cn1)[C@@H](C)O)[C@@H](C)O)C(C)C)C(=O)N[C@@H](CC(N)=O)C(=O)N[C@@H](CCCCNC(=O)CC[C@H](NC(=O)COCCOCCNC(=O)COCCOCCNC(=O)CC[C@H](NC(=O)CC[C@H](NC(=O)CCCCCCCCCCCCCCCCC(=O)O)C(=O)O)C(=O)O)C(=O)O)C(N)=O

The binders below were run against T1, human GLP-1 receptor (human, UniProt P43220 24-463) (assay: cell-based or functional assay).

Binder	EC50 GLP-1R, CRE luciferase reporter gene assay in BHK cells [nM]
B1	0.017
H[Aib]QGTFTSDLSKYLDKRRAREFVAWLLNT-NH2 (not fully specified (residue 16))	0.0047
B2	0.008
H[Aib]QGTFTSDLSKYLESKRARSFVQWLLK([γGlu-γGlu-Ser-Glu-Ser-γGlu-γGlu-C18 diacid])T-NH2	0.007
B3	0.006
B4	0.005
B5	0.0296
B6	0.0027

The binders below were run against T2, human glucagon receptor (human, UniProt P47871 26-477) (assay: cell-based or functional assay).
T2 sequence (P47871 26-477): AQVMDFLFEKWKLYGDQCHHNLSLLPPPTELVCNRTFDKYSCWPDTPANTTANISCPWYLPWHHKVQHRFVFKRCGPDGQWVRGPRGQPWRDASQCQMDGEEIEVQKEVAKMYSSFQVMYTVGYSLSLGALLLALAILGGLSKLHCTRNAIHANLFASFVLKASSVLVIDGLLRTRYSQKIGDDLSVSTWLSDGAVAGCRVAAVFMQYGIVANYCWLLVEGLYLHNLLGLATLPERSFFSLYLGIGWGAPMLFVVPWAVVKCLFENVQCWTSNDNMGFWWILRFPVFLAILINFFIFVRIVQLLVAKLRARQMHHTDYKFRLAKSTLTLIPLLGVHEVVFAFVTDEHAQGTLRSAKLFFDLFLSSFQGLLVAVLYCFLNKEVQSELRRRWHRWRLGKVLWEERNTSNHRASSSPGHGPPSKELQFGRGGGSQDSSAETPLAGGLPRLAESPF

Binder	EC50 GlucR, CRE luciferase reporter gene assay in BHK cells [nM]
B1	0.004
H[Aib]QGTFTSDLSKYLDKRRAREFVAWLLNT-NH2 (not fully specified (residue 16))	0.0399
B2	0.01
H[Aib]QGTFTSDLSKYLESKRARSFVQWLLK([γGlu-γGlu-Ser-Glu-Ser-γGlu-γGlu-C18 diacid])T-NH2	0.068
B3	0.044
B4	0.047
B5	1.13
B6	0.24

These binders were tested against T1, human GLP-1 receptor (assay: displacement of 125I-GLP-1(7-36)NH2, membranes with human GLP-1R, SPA).
Method: (§1) The receptor binding of each compound to the human GLP-1 receptor was measured in a displacement binding assay. […] Each derivative was added in a series of concentrations to isolated membranes containing the human GLP-1 receptor and displacement of the labelled ligand was monitored. The receptor binding was reported as the concentration at which half of the labelled ligand was displaced from the receptor, the IC₅₀ value.

Binder	IC50 [nM]
B1	0.4
H[Aib]QGTFTSDLSKYLDKRRAREFVAWLLNT-NH2 (not fully specified (residue 16))	0.9
B2	0.2
H[Aib]QGTFTSDLSKYLESKRARSFVQWLLK([γGlu-γGlu-Ser-Glu-Ser-γGlu-γGlu-C18 diacid])T-NH2	0.2
B3	0.5
B4	0.6
B5	1.1
B6	0.3

Each binder was assayed against T2, human glucagon receptor (assay: displacement of 125I-glucagon, membranes with human glucagon receptor, SPA).
Method: as §1, with “human glucagon” for “human GLP-1”, “ligand is” for “ligand was”

Binder	IC50 [nM]
B1	1.7
H[Aib]QGTFTSDLSKYLDKRRAREFVAWLLNT-NH2 (not fully specified (residue 16))	8.5
B2	3.9
H[Aib]QGTFTSDLSKYLESKRARSFVQWLLK([γGlu-γGlu-Ser-Glu-Ser-γGlu-γGlu-C18 diacid])T-NH2	9.5
B3	17
B4	10.4
B5	6.7
B6	51
